IntAct's records for PubMed 37020021

Molecular target: T1, ncbp1_human NCBP1 (UniProt Q09161)
T1 sequence: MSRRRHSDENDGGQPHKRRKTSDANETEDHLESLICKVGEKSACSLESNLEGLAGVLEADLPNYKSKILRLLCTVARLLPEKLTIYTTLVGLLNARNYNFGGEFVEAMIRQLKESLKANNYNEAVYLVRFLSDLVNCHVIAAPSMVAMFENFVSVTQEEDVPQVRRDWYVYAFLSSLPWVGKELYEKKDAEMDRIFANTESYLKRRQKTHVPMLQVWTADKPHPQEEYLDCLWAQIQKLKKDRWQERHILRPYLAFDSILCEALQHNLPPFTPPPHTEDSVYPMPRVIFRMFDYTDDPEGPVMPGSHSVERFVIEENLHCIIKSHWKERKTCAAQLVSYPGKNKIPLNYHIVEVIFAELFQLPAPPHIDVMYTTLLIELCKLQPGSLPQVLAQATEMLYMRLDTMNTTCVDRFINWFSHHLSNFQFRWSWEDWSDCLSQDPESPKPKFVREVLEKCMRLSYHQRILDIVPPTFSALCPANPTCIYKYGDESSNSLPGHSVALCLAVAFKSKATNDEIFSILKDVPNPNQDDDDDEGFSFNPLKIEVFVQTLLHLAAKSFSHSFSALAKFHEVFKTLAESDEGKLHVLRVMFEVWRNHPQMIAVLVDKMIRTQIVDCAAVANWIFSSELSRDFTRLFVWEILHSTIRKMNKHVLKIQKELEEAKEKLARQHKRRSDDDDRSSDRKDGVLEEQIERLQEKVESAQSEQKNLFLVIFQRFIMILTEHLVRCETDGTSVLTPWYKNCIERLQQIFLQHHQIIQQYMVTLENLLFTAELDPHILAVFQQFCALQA

## THO complex subunit 4 (Homo sapiens) (from UniProt Q86V81) P170A
  effect of a mutation on the interaction: decreasing interaction strength

## THO complex subunit 4 (Homo sapiens) (from UniProt Q86V81) F115S
  effect of a mutation on the interaction: decreasing interaction strength

## THO complex subunit 4 (Homo sapiens) (from UniProt Q86V81) Q165E
  effect of a mutation on the interaction: decreasing interaction strength

## THO complex subunit 4 (Homo sapiens) (from UniProt Q86V81) V169A
  effect of a mutation on the interaction: decreasing interaction strength
